Data: patent US20100305026A1

Target: CD44v6 (endogenous human CD44 variant isoforms containing exon v6) (human), P16070
Assay: cell-based or functional assay

KEQWFGNRWHEGYR [human CD44v6 14-mer peptide having SEQ ID NO: 2] showed an entry of InlB-coated latex beads into HeLa cells (block of entry) of 100%.
